Reference: the Human Domainome abundance scans (Beltran et al. 2025)

B1: Pre-mRNA-processing factor 40 homolog B, residues 274 to 332; numbered along this chain, Q6NWY9 (parent)
chain: SNREKAKQAFKELLRDKAVPSNASWEQAMKMVVTDPRYSALPKLSEKKQAFNAYKAQRE

Variants of: B1
Assay: abundance fitness (aPCA) (normalised: wild type 0, dead -1); higher = more abundant; growth selection in yeast, the domain comes from the species named
Details: Homo sapiens

Abundance fitness of substitutions, site by site:
K7: G -0.319 | V 0.124 | F 0.104 | I -0.055 | L 0.065 | Q 0.062 | M 0.144 | R -0.174 | T 0.042 | S -0.005 | A 0.027 | C -0.276 | N -0.074 | E 0.135 | P -0.587 | Y -0.016 | H 0.065
F10: G -0.277 | H -0.132 | S -0.254 | T -0.048 | K -0.318 | M -0.4 | I -0.25 | D -0.22 | P -0.177 | E -0.067 | C -0.611 | R -0.332 | L -0.424
K5: E -0.049 | D -0.012 | Y -0.179 | S -0.055 | Q -0.07 | P -0.409 | R -0.193 | L -0.177 | W -0.553 | G -0.187 | N -0.081 | V -0.063 | T -0.042 | M -0.024 | C -0.134 | I -0.171 | H -0.203
N2: H -0.83 | A -0.406 | P -0.497 | R -0.324 | G -0.207 | W -0.276 | V -0.849 | T 0.027 | I -0.46 | Q 0.037 | S -0.208 | K -0.139 | Y -1.01 | E -0.089 | C -0.547 | D 0.033 | L -0.581 | M -0.393
A9: N -0.279 | K -0.196 | W -0.72 | T 0.117 | E -0.038 | L -0.092 | R -0.364 | F -0.563 | M -0.119 | Y -0.417 | V 0.003 | Q -0.041 | H -0.458 | P -0.536 | D 0.09 | C -0.094 | S -0.106 | I 0.081 | G -0.292
Q8: A -0.145 | E 0.003 | N -0.585 | G -0.301 | S -0.362 | W -0.581 | T -0.065 | L -0.108 | R -0.241 | M -0.416 | P -0.42 | C -0.386 | I -0.069 | F -0.412 | H -0.341 | Y -0.49
S1: R -0.084 | C 0.042 | F 0.15 | L 0.045 | W -0.417 | Y 0.089 | I -0.075 | D -0.357 | T -0.032 | P -0.478 | E -0.206 | A -0.015 | K 0.135 | N -0.042 | M -0.364 | G 0.07 | V 0.13
A6: G -0.05 | Q 0.009 | H -0.201 | S -0.194 | T -0.394 | R -0.381 | E 0.172 | V -0.331 | D -0.002 | K -0.243 | W -0.948 | Y -0.56 | I -0.153 | L -0.566 | M -0.539
E4: S -0.156 | K -0.368 | A -1.5 | D -0.01 | L -0.23 | Y -0.457 | R -0.45 | Q -0.233 | M -0.41 | I -0.025 | T -0.433 | C -0.668 | W -0.642 | N -0.074 | H -0.082 | P -0.566 | V -1.08 | F -0.294 | G -0.374
R3: I 0.06 | K 0.308 | C 0.043 | E -0.047 | P 0.034 | G -0.084 | F -0.27 | S 0.076 | W -0.251 | L 0.044 | M 0.07 | A -0.409 | N 0.221 | H -0.281 | D 0.036 | T -0.062
